Laboratory results reported in article PMC10786891, “Massively parallel profiling of RNA-targeting CRISPR-Cas13d”.

T1: EsCas13d, nuclease-dead (Eubacterium siraeum, UniProt B0MS50, R295A;H300A;R849A;H854A)
T1 sequence: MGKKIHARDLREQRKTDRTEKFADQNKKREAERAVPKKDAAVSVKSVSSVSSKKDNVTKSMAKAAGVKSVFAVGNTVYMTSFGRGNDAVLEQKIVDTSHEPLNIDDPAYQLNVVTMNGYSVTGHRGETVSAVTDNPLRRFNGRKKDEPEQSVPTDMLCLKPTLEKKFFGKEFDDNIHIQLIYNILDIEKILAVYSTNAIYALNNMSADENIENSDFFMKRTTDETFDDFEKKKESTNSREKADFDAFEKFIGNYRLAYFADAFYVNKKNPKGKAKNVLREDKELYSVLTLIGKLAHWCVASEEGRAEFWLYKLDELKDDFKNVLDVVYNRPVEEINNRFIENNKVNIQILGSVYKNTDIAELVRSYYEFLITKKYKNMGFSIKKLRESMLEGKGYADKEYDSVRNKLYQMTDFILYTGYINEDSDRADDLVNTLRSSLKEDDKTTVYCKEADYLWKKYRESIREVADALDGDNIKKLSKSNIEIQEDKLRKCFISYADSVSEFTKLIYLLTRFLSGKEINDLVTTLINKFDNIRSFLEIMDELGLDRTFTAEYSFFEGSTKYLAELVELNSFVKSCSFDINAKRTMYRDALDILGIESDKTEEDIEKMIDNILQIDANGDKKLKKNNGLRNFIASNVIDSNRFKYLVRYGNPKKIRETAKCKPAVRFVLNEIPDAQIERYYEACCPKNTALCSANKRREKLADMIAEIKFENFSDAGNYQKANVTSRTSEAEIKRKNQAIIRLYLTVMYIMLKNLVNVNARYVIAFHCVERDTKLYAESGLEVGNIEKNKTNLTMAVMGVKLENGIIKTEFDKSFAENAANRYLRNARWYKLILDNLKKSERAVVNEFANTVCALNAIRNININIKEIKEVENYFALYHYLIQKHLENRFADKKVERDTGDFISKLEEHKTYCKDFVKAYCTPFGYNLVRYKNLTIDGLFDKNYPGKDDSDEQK

B1: target 1 MT 5'PFS GCG 3'PFS AGG (mixed)
RNA 1: CACCCGUGCAAAAAUGCAGGGGUCUAAAACUGAGCGGAUAACCUCUCUAUGG
RNA 2: GGGAAUGGAUCCACAUCUACGAAUUCGCGCCAUAGAGAGGUUAUCCGCUCAAGGAGAUCGGAAGAGCACACGU
B2: target 1 MT 5'PFS AGA 3'PFS CCU (mixed)
RNA 1: CACCCGUGCAAAAAUGCAGGGGUCUAAAACUGAGCGGAUAACCUCUCUAUGG
RNA 2: GGGAAUGGAUCCACAUCUACGAAUUCAGACCAUAGAGAGGUUAUCCGCUCACCUAGAUCGGAAGAGCACACGU
B3: target 1 MT 5'PFS GUC 3'PFS CCA (mixed)
RNA 1: CACCCGUGCAAAAAUGCAGGGGUCUAAAACUGAGCGGAUAACCUCUCUAUGG
RNA 2: GGGAAUGGAUCCACAUCUACGAAUUCGUCCCAUAGAGAGGUUAUCCGCUCACCAAGAUCGGAAGAGCACACGU
B4: target 1 MT 5'PFS CAA 3'PFS AUU (mixed)
RNA 1: CACCCGUGCAAAAAUGCAGGGGUCUAAAACUGAGCGGAUAACCUCUCUAUGG
RNA 2: GGGAAUGGAUCCACAUCUACGAAUUCCAACCAUAGAGAGGUUAUCCGCUCAAUUAGAUCGGAAGAGCACACGU
B5: target 1 MT 5'PFS UAU 3'PFS UCC (mixed)
RNA 1: CACCCGUGCAAAAAUGCAGGGGUCUAAAACUGAGCGGAUAACCUCUCUAUGG
RNA 2: GGGAAUGGAUCCACAUCUACGAAUUCUAUCCAUAGAGAGGUUAUCCGCUCAUCCAGAUCGGAAGAGCACACGU
B6: target 1 MT 5'PFS AGA 3'PFS CCG (mixed)
RNA 1: CACCCGUGCAAAAAUGCAGGGGUCUAAAACUGAGCGGAUAACCUCUCUAUGG
RNA 2: GGGAAUGGAUCCACAUCUACGAAUUCAGACCAUAGAGAGGUUAUCCGCUCACCGAGAUCGGAAGAGCACACGU
B7: target 1 MT 5'PFS GUC 3'PFS CCG (mixed)
RNA 1: CACCCGUGCAAAAAUGCAGGGGUCUAAAACUGAGCGGAUAACCUCUCUAUGG
RNA 2: GGGAAUGGAUCCACAUCUACGAAUUCGUCCCAUAGAGAGGUUAUCCGCUCACCGAGAUCGGAAGAGCACACGU
B8: target 1 MT 5'PFS GGC 3'PFS AUC (mixed)
RNA 1: CACCCGUGCAAAAAUGCAGGGGUCUAAAACUGAGCGGAUAACCUCUCUAUGG
RNA 2: GGGAAUGGAUCCACAUCUACGAAUUCGGCCCAUAGAGAGGUUAUCCGCUCAAUCAGAUCGGAAGAGCACACGU
B9: target 1 insA 3' of 5,insC 3' of 3 (mixed)
RNA 1: CACCCGUGCAAAAAUGCAGGGGUCUAAAACUGAGCGGAUAACCUCUCUAUGG
RNA 2: GGGAAUGGAUCCACAUCUACGAAUUCGUACCAUAGAGAGGUUAUCCGACUCCACCGAGAUCGGAAGAGCACACGU
B10: target 1 MT 5'PFS GUC 3'PFS CCC (mixed)
RNA 1: CACCCGUGCAAAAAUGCAGGGGUCUAAAACUGAGCGGAUAACCUCUCUAUGG
RNA 2: GGGAAUGGAUCCACAUCUACGAAUUCGUCCCAUAGAGAGGUUAUCCGCUCACCCAGAUCGGAAGAGCACACGU
B11: target 1 MT 5'PFS GUA 3'PFS CAC (mixed)
RNA 1: CACCCGUGCAAAAAUGCAGGGGUCUAAAACUGAGCGGAUAACCUCUCUAUGG
RNA 2: GGGAAUGGAUCCACAUCUACGAAUUCGUACCAUAGAGAGGUUAUCCGCUCACACAGAUCGGAAGAGCACACGU
B12: target 1 MT 5'PFS CAA 3'PFS CCC (mixed)
RNA 1: CACCCGUGCAAAAAUGCAGGGGUCUAAAACUGAGCGGAUAACCUCUCUAUGG
RNA 2: GGGAAUGGAUCCACAUCUACGAAUUCCAACCAUAGAGAGGUUAUCCGCUCACCCAGAUCGGAAGAGCACACGU
B13: target 1 MT 5'PFS GCC 3'PFS UAU (mixed)
RNA 1: CACCCGUGCAAAAAUGCAGGGGUCUAAAACUGAGCGGAUAACCUCUCUAUGG
RNA 2: GGGAAUGGAUCCACAUCUACGAAUUCGCCCCAUAGAGAGGUUAUCCGCUCAUAUAGAUCGGAAGAGCACACGU
B14: target 1 MT 5'PFS GCG 3'PFS AGU (mixed)
RNA 1: CACCCGUGCAAAAAUGCAGGGGUCUAAAACUGAGCGGAUAACCUCUCUAUGG
RNA 2: GGGAAUGGAUCCACAUCUACGAAUUCGCGCCAUAGAGAGGUUAUCCGCUCAAGUAGAUCGGAAGAGCACACGU
B15: target 1 MT 5'PFS GUA 3'PFS CAU (mixed)
RNA 1: CACCCGUGCAAAAAUGCAGGGGUCUAAAACUGAGCGGAUAACCUCUCUAUGG
RNA 2: GGGAAUGGAUCCACAUCUACGAAUUCGUACCAUAGAGAGGUUAUCCGCUCACAUAGAUCGGAAGAGCACACGU
B16: target 1 MT 5'PFS GAC 3'PFS CCC (mixed)
RNA 1: CACCCGUGCAAAAAUGCAGGGGUCUAAAACUGAGCGGAUAACCUCUCUAUGG
RNA 2: GGGAAUGGAUCCACAUCUACGAAUUCGACCCAUAGAGAGGUUAUCCGCUCACCCAGAUCGGAAGAGCACACGU
B17: target 1 MT 5'PFS GCC 3'PFS UAA (mixed)
RNA 1: CACCCGUGCAAAAAUGCAGGGGUCUAAAACUGAGCGGAUAACCUCUCUAUGG
RNA 2: GGGAAUGGAUCCACAUCUACGAAUUCGCCCCAUAGAGAGGUUAUCCGCUCAUAAAGAUCGGAAGAGCACACGU
B18: target 1 MT 5'PFS GGC 3'PFS AUU (mixed)
RNA 1: CACCCGUGCAAAAAUGCAGGGGUCUAAAACUGAGCGGAUAACCUCUCUAUGG
RNA 2: GGGAAUGGAUCCACAUCUACGAAUUCGGCCCAUAGAGAGGUUAUCCGCUCAAUUAGAUCGGAAGAGCACACGU
B19: target 1 MT 5'PFS UCC 3'PFS CCU (mixed)
RNA 1: CACCCGUGCAAAAAUGCAGGGGUCUAAAACUGAGCGGAUAACCUCUCUAUGG
RNA 2: GGGAAUGGAUCCACAUCUACGAAUUCUCCCCAUAGAGAGGUUAUCCGCUCACCUAGAUCGGAAGAGCACACGU
B20: target 1 MT 5'PFS GUU 3'PFS AAC (mixed)
RNA 1: CACCCGUGCAAAAAUGCAGGGGUCUAAAACUGAGCGGAUAACCUCUCUAUGG
RNA 2: GGGAAUGGAUCCACAUCUACGAAUUCGUUCCAUAGAGAGGUUAUCCGCUCAAACAGAUCGGAAGAGCACACGU
B21: target 1 MT 5'PFS GCC 3'PFS UAC (mixed)
RNA 1: CACCCGUGCAAAAAUGCAGGGGUCUAAAACUGAGCGGAUAACCUCUCUAUGG
RNA 2: GGGAAUGGAUCCACAUCUACGAAUUCGCCCCAUAGAGAGGUUAUCCGCUCAUACAGAUCGGAAGAGCACACGU
B22: target 1 MT 5'PFS GGC 3'PFS AUG (mixed)
RNA 1: CACCCGUGCAAAAAUGCAGGGGUCUAAAACUGAGCGGAUAACCUCUCUAUGG
RNA 2: GGGAAUGGAUCCACAUCUACGAAUUCGGCCCAUAGAGAGGUUAUCCGCUCAAUGAGAUCGGAAGAGCACACGU
B23: target 1 insG 3' of 19,insG 3' of 6 (mixed)
RNA 1: CACCCGUGCAAAAAUGCAGGGGUCUAAAACUGAGCGGAUAACCUCUCUAUGG
RNA 2: GGGAAUGGAUCCACAUCUACGAAUUCGUACCAUGAGAGAGGUUAUCCGGCUCACCGAGAUCGGAAGAGCACACGU
B24: target 1 MT 5'PFS GGC 3'PFS AUA (mixed)
RNA 1: CACCCGUGCAAAAAUGCAGGGGUCUAAAACUGAGCGGAUAACCUCUCUAUGG
RNA 2: GGGAAUGGAUCCACAUCUACGAAUUCGGCCCAUAGAGAGGUUAUCCGCUCAAUAAGAUCGGAAGAGCACACGU
B25: target 1 MT 5'PFS CAA 3'PFS CCG (mixed)
RNA 1: CACCCGUGCAAAAAUGCAGGGGUCUAAAACUGAGCGGAUAACCUCUCUAUGG
RNA 2: GGGAAUGGAUCCACAUCUACGAAUUCCAACCAUAGAGAGGUUAUCCGCUCACCGAGAUCGGAAGAGCACACGU
B26: target 1 MT 5'PFS GCC 3'PFS UAG (mixed)
RNA 1: CACCCGUGCAAAAAUGCAGGGGUCUAAAACUGAGCGGAUAACCUCUCUAUGG
RNA 2: GGGAAUGGAUCCACAUCUACGAAUUCGCCCCAUAGAGAGGUUAUCCGCUCAUAGAGAUCGGAAGAGCACACGU
B27: target 1 MT 5'PFS GUA 3'PFS CAA (mixed)
RNA 1: CACCCGUGCAAAAAUGCAGGGGUCUAAAACUGAGCGGAUAACCUCUCUAUGG
RNA 2: GGGAAUGGAUCCACAUCUACGAAUUCGUACCAUAGAGAGGUUAUCCGCUCACAAAGAUCGGAAGAGCACACGU
B28: target 1 MT 5'PFS UCC 3'PFS CCG (mixed)
RNA 1: CACCCGUGCAAAAAUGCAGGGGUCUAAAACUGAGCGGAUAACCUCUCUAUGG
RNA 2: GGGAAUGGAUCCACAUCUACGAAUUCUCCCCAUAGAGAGGUUAUCCGCUCACCGAGAUCGGAAGAGCACACGU

Each binder was assayed against T1, EsCas13d, nuclease-dead (assay: crRNA (strand 1, pre-loaded); Mg2+; 40 mM Tris-HCl pH 7.5, 150 mM NaCl, 6 mM MgCl2, 1 mM DTT, 0.1% Tween-20, 0.2 mg/ml BSA; 25 C; 10 min per concentration, then washed). Conditions: tags: His6-TwinStrep-SUMO cleaved; N-terminal SNAP kept (SNAP-Surface 488); label: 3' end held by stalled T7 RNA polymerase.
With B1 the Kd was 100 ± 50 nM.
With B2 the Kd was roughly 64.5 nM.
With B3 the Kd was roughly 18 nM.
Work on B4 yielded a Kd of 9.8 ± 3.5 nM.
B5 gave a Kd of 36 ± 13.5 nM.
With B6 the Kd was 37 ± 10.5 nM.
B7 showed a Kd of 14.8 ± 2.55 nM.
For B8, the Kd was 42.5 ± 8.5 nM.
Work on B9 yielded a Kd of 12.3 ± 2.2 nM.
With B10 the Kd was 19 ± 9 nM.
Binder B11 has a Kd of 16.9 ± 2.35 nM.
B12 showed a Kd of roughly 30.5 nM.
B13 showed a Kd of 10.8 ± 2.45 nM.
B14 was tested, and the Kd was 29.5 ± 7 nM.
In the case of B15, the Kd is reported as 12 ± 1.15 nM.
B16 gave a Kd of roughly 37 nM.
B17 showed a Kd of 16 ± 6 nM.
B18 was tested, and the Kd was 19.6 ± 4.75 nM.
In the case of B19, the Kd is reported as roughly 15 nM.
B20 was tested, and the Kd was 52 ± 19 nM.
In the case of B21, the Kd is reported as 16 ± 5.5 nM.
B22 gave a Kd of 22.5 ± 7 nM.
With B23 the Kd was 76 ± 9 nM.
B24 showed a Kd of 16.6 ± 2.05 nM.
In the case of B25, the Kd is reported as 24 ± 6.5 nM.
For B26, the Kd was 21.8 ± 6.1 nM.
In the case of B27, the Kd is reported as 19.6 ± 2.3 nM.
Work on B28 yielded a Kd of 18 ± 5 nM.
